# Experimental data from the RNAGym collection of RNA variant scans (doi:10.7554/elife.90254).
# B1: LINE1-full (parent)
# chain: UACGUAGGUGGUUUUCCCCUGAUAGUGCUAAGGGGGCCUGGAAGUUUGGACUGGGCAGAGCUCAACACAGCGUGGCAAAGUGGCUGUGGCUAGACUGCCUCUCUGGAUUCCUCGUCACUCAGCAGGGCAUCUCUGAGAGAAAUGCC
# Variants of: B1
# Experiment: self-cleavage, relative activity (ratio to wild type); higher = more cleavage; in vitro, sequencing; the parent is a self-cleaving ribozyme
row,Variant,self-cleavage
1,U9A C111G,1.11
2,G8A U91C,0.69
3,U9A A24G,0.93
4,U9C G34U,1.09
5,U9G U13G,1.31
6,U9G U13C,0.65
7,G7A U39C,0.83
8,G8A G44A,1.08
9,G8C U81C,1.08
10,G7U C123G,1.13
11,U9A U119C,1.04
12,G8A G49A,1.07
13,U9A U23C,0.93
14,G8A A43G,1.08
15,G7A G127A,1.3
16,U9A U20C,0.88
17,U9A G70A,0.12
18,G7A G89A,0.02
19,G8A G34U,1.22
20,G7U A140U,1.34
21,U9A A67U,0.25
22,U9A A69U,0.06
23,G8A U112C,1.03
24,G8A U15C,1.97

row,Variant,self-cleavage
1,U9G A124U,1.12
2,U9A G125U,0.15
3,G7U A94G,0.36
4,U9A G88A,0.12
5,U9A A94U,0.39
6,G7U U62C,0.04
7,U9A U115A,1.09
8,U9C G11A,1.07
9,U9C C113A,1.2
10,U9C C113U,1.08
11,G7A U46A,1.23
12,U9C A59G,0.11
13,U9C A69U,0.06
14,U9C G114A,1.42
15,U9C G25U,0.96
16,U9C C17A,1.31
17,U9C U104A,1.4
18,U9C A138U,1.92
19,U9A U15C,1.08
20,U9C C18U,1
21,G7U A64G,0.35
22,U9C G139A,1.09
23,U9A U134A,1.17
24,U9C A117C,1.41

row,Variant,self-cleavage
1,U9C U85A,0.17
2,U9C U85C,0.3
3,U9C C98U,0.59
4,U9C A124G,1.15
5,U9C A124C,2.53
6,A6U U73A,1.54
7,U9C G54A,0.65
8,U9A G40A,1
9,G8U U9A,2.01
10,U9C A31U,1.2
11,U9C A31G,0.91
12,U9G,0.93
13,U9C,1.22
14,U9A,1.05
15,U9C A22G,1.03
16,U9C U130C,1.3
17,U9C U130G,0.74
18,U9C U130A,1.16
19,U9C U119C,1.36
20,U9C U119A,1.36
21,U9A G144A,1.19
22,U9C A77U,1.19
23,G8A A117C,1.03
24,G8U A129G,0.32

row,Variant,self-cleavage
1,G7A A22G,1.36
2,G7A A22U,0.73
3,G8A A79G,1.36
4,G7U U15A,0.97
5,U9C U45G,1.56
6,G7U A138G,1.31
7,U9C U14C,1.18
8,G8A A64G,0.42
9,U9C U132C,1.47
10,U9C G33A,1.01
11,U9A G36A,1.09
12,G7A U20A,0.96
13,U9A C123U,1.11
14,G7U A69G,0.94
15,A6U U91C,0.52
16,A6U U102C,0.68
17,G8U,1.39
18,G8C,1.66
19,G8A,1.45
20,U9A U130C,1.07
21,U9A U130A,1.23
22,U9A U46A,1.22
23,U9C G60C,0.07
24,G7A A121G,1.18

row,Variant,self-cleavage
1,U9C A140U,1.35
2,U9C A140G,1.19
3,U9A G97A,0.12
4,U9C G55A,0.48
5,U9C G55U,0.37
6,U9A C37G,0.82
7,G7U U104C,0.9
8,U9G G93U,0.05
9,U9A A77G,1.61
10,U9A U104G,0.98
11,U9A U104A,1.29
12,A6U U100C,0.76
13,A6U U100A,0.52
14,U9C U20G,1.16
15,U9C U20C,1.05
16,G8U A42U,1.17
17,U9A G33U,1.6
18,U9A U109A,0.14
19,G7A U108C,1.57
20,G7U A77U,1.04
21,U9G A142G,0.95
22,G7U A141G,1.62
23,U9C G105A,1.47
24,G7U A78G,0.88

row,Variant,self-cleavage
1,U9C C56U,0.37
2,G8A A138G,2.47
3,U9C A78U,2.65
4,U9C A78C,1.5
5,U9C U134C,1.05
6,U9G C146U,1.29
7,U9A U96C,0.19
8,G8U A59G,0.12
9,G8A U96A,0.08
10,G8A U96C,0.15
11,U9C C51A,0.63
12,U9C C90G,0.09
13,U9C C90U,0.09
14,U9A A22G,1.53
15,G8A U85C,0.25
16,U9A U12A,0.37
17,U9C A92U,0.28
18,U9C A92C,0.48
19,U9C A92G,0.1
20,U9A A65G,0.21
21,U9C A121G,1.27
22,U9C U47C,1.45
23,U9C U47A,1.18
24,G8U U29C,1.99

row,Variant,self-cleavage
1,U9A A129G,1.24
2,U9A A129C,1.22
3,G7A G97A,0.1
4,U9C G53A,1.2
5,G7A U87C,0.07
6,G7A U87A,0.04
7,U9C U73A,1.58
8,U9C U73C,1.27
9,G7A U109A,1.49
10,U9A U14C,0.89
11,U9A U14G,0
12,U9A U108A,1.01
13,G8U A136G,0.46
14,U9A U62C,0.09
15,G7U U73A,1.14
16,U9A A59G,0.18
17,U9C U91C,1.75
18,U9C U91A,0.7
19,U9A A136U,0.81
20,A6U U96C,0.09
21,U9C U100C,1.51
22,U9C U100A,1.41
23,U9C A24G,1.04
